Results from PMC4385502 (Molecular cell, 2015).

Target: the molecule itself
Experiment: SEC

B1: RIG-I-TD (RIG-I triple deamidation mutant) (natural protein)
chain: MTTEQRRSLEAFQDYIRKTLDPTYILSYMAPWFREEEVQYIQAEKNNKGPMEAATLFLKFLLELQEEGWFRGFLDALDHAGYSGLYEAIESWDFKKIEKLEEYRLLLKRLQPEFKTRIIPTDIISDLSECLINQECEEILQICSTKGMMAGAEKLVECLLRSDKENWPKTLKLALEKERNKFSELWIVEKGIKDVETEDLEDKMETSDIQIFYQEDPECQNLSENSCPPSEVSDTNLYSPFKPRDYQLELALPAMKGKNTIICAPTGCGKTFVSLLICEHHLKKFPQGQKGKVVFFANQIPVYEQQKSVFSKYFERHGYRVTGISGATAENVPVEQIVENNDIIILTPQILVNNLKKGTIPSLSIFTLMIFDECHNTSKQHPYNMIMFNYLDQKLGGSSGPLPQVIGLTASVGVGDAKNTDEALDYICKLCASLDASVIATVKHDLEELEQVVYKPQKFFRKVESRISDKFKYIIAQLMRDTESLAKRICKDLENLSQIQNREFGTQKYEQWIVTVQKACMVFQMPDKDEESRICKALFLYTSHLRKYNDALIISEHARMKDALDYLKDFFSNVRAAGFDEIEQDLTQRFEEKLQELESVSRDPSNENPKLEDLCFILQEEYHLNPETITILFVKTRALVDALKNWIEGNPKLSFLKPGILTGRGKTNQNTGMTLPAQKCILDAFKASGDHNILIATSVADEGIDIAQCNLVILYEYVGNVIKMIQTRGRGRARGSKCFLLTSNAGVIEKEQINMYKEKMMNDSILRLQTWDEAVFREKILHIQTHEKFIRDSQEKPKPVPDKENKKLLCRKCKALACYTADVRVIEECHYTVLGDAFKECFVSRPHPKPKQFSSFEKRAKIFCARQNCSHDWGIHVKYKTFEIPVIKIESFVVEDIATGVQTLYSKWKDFHFEKIPFDPAEMSK
binding result: binds
